Experimental findings from article PMC2806925, “Crystal Structure of the S. solfataricus Archaeal Exosome Reveals Conformational Flexibility in the RNA-Binding Ring” (PLoS ONE, 2010) are described below.

This data set concerns the molecule itself. Description: crystal structure; Rrp4-exosome isoform (Rrp4, Rrp41, Rrp42 co-expressed and co-purified); 2.9 Å, space group C2; 30% PEG4000, 100 mM Tris-HCl pH 8.6, 200 mM Mg(Ac)2; refined without three-fold NCS.

B1: Sulfolobus solfataricus exosome subunit Rrp4 as in the crystallised Rrp4-exosome isoform (natural protein)
chain: MNMSQSQKIVLQPRSIVVPGELLAEGEFQIPWSPYILKINSKYYSTVVGLFDVKDTQFEVIPLEGSFYYPKINDIVIGLVEDVEIYGWVVDIKAPYKAYLPASNLLGRSINVGEDLRRYLDVGDYVIARIENFDRSIDPVLSVKGKDLGRVSNGIVIDIMPVKVPRVIGKNKSMYETLTSKSGCSIFVANNGRIWATCPSRFSEEILIEAIRKIENESHIKGLTDRIKQFIEEKLGERNASSGETKTNS
notes: domains as printed: N-ter aa 1-50, S1 aa 56-126, KH aa 135-250; The purification of the Rrp4-exosome isoform is not described on its own; In the four-subunit preparation the His6-tag was removed with TEV protease, so the tag was probably cleaved here too; also called Chains C, F and I
Consider B1, for which the “stoichiometry N” value stood at 3.

Broadly, the stoichiometry N is the number of molecules, sites or subunits per partner or assembly.
